The text below walks through data of patent publication US20180009892A1 (EUREKA THERAPEUTICS, published 2018).

A word on the IC50: it is the concentration that inhibits the measured activity by half. The low end stands for greater potency, the high end for weaker potency. One may read the koff as a measure of how fast the partners let go of each other. A lower koff goes with slow dissociation. As a reminder, the kon is a measure of how fast the partners come together. A higher kon goes with faster complex formation.

The target of one assay is T1, human ROR2-ECD (human, UniProt Q01974 34-403).
T1 construct: extracellular domain; also called hROR2
T1 sequence (Q01974 34-403): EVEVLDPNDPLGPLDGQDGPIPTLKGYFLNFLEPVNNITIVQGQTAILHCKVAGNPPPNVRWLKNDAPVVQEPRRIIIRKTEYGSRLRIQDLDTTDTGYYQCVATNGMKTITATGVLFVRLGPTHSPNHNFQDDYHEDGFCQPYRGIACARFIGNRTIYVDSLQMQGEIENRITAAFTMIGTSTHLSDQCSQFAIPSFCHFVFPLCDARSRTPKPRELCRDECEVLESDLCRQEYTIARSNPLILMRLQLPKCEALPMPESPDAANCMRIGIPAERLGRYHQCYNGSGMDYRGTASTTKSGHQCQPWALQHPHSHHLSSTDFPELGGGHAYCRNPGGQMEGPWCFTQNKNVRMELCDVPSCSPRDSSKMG
Briefly: phage antibody protein ELISA. The protocol: (§1) Binding specificities of the 45 phage antibodies were determined by protein ELISA against human ROR1-ECD, human ROR2-ECD and mouse ROR1-ECD (FIG. 12).

Assay [1] deals with T2, human ROR1 extracellular domain (ECD) protein (human, UniProt Q01973 30-406).
T2 construct: also called hROR1-ECD; human ROR1-ECD
T2 sequence (Q01973 30-406 limits assumed): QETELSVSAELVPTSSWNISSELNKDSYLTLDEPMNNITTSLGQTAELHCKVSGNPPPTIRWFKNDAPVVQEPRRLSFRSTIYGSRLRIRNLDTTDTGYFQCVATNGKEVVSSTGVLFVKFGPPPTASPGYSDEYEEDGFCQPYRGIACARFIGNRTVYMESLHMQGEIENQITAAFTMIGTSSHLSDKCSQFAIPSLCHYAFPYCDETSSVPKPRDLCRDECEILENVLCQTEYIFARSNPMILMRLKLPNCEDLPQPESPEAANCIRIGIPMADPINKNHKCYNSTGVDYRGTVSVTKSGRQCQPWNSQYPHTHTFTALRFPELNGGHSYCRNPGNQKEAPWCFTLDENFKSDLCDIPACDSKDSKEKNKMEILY
Kind of assay: competitive phage ELISA: soluble ROR1 against ROR1-coated plate. The protocol:
Purified phage antibodies were first diluted serially in PBST buffer, and tested for binding to a ROR1-coated plate. The dilution that gave 50-80% saturating signal was used in the solution binding assay in which phage were first incubated with increasing concentration of ROR1 for one to two hours, and then transferred to a ROR1-coated plate for 10-15 minutes to capture the unbound phage.
In general terms: An ELISA detects its analyte on a solid surface through an enzyme-linked reagent.

In assay [2] the target is T3, ROR1 extracellular domain Fc-fusion, dimer (human, UniProt Q01973 30-406).
T3 construct: also called ROR1 dimer; hROR1 dimeric ECD-Fc fusion protein; not shown: Fc part
T3 sequence (Q01973 30-406): as the sequence (Q01973 30-406 limits assumed) above
Briefly: SPR, immobilised ROR1 dimer, antibody injected, 1:1 model. The protocol: (§2) The binding affinities of ROR1 extracellular domain dimer and monomer for anti-ROR1 antibodies were determined by surface plasmon resonance (SPR). ROR1 extracellular domain Fc-fusion, “dimer,” and ROR1 extracellular domain Fc fusion:Fc heterodimer, “monomer,” are the dimer and monomeric forms of ROR1 used for affinity analysis, respectively. Briefly, ROR1 dimer and monomer were directly immobilized to a CM4 chip using an amine coupling kit and 100 mM ethylenediamine in 100 mM Sodium Borate buffer, pH 8.0 as the blocking reagent. Approximately 100-150 RU of ROR1 dimer and monomer were immobilized on separate flow cells and an un-derivatized flow cell was used as a reference control. […] Dissociation was followed for 180 seconds. The association constant, dissociation constant, and affinity of each anti-ROR1 antibody was calculated using the Biacore T200 Evaluation Software 1:1 binding model.
(§3) Sensorgrams were normalized to 100 RU using the “binding stability point” at the end of the association phase but before the dissociation phase.
On the technique in general: Surface plasmon resonance follows binding to a sensor surface in real time, without labels.

The target of assay [3] is T3, ROR1 extracellular domain Fc-fusion, …. Kind of assay: SPR, immobilised ROR1 dimer, antibody injected, 1:1 model; apparent affinity. The protocol:
as §2, §3

The target of assay [4] is T4, ROR1 extracellular domain Fc fusion:Fc heterodimer, monomer (human).
T4 construct: Heterodimer of one ROR1 ECD-Fc chain and one Fc chain; also called ROR1 monomer; hROR1 monomeric ECD-Fc fusion protein; not shown: Fc part; Fc alone
T4 sequence (Q01973 30-406, one chain of several): as the sequence (Q01973 30-406 limits assumed) above
Briefly: SPR, immobilised ROR1 monomer, antibody injected, 1:1 model. The protocol: as §2, §3

The next assay deals with T5, mouse ROR1-ECD (mouse, UniProt Q9Z139 30-406).
T5 construct: extracellular domain; also called mROR1
T5 sequence (Q9Z139 30-406): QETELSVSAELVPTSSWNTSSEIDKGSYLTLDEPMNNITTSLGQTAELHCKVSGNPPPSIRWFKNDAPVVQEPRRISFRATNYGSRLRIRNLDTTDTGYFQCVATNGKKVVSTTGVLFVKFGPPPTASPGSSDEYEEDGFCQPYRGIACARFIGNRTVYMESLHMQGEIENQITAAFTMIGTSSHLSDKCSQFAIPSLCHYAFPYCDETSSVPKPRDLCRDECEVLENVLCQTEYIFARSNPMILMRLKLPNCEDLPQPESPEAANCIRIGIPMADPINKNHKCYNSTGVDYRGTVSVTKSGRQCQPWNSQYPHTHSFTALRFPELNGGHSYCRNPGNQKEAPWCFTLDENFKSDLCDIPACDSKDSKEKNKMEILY
Kind of assay: phage antibody protein ELISA. The protocol:
as §1

Changes are numbered by the printed parent chain.

B1: P601-57 (scFv, V domains shown)
VH: EVQLVQSGAEVKKPGSSVKISCKASGGAFTNFGISWVRQAPGQGLEWMGWISTYNSETNYAQKLQGRVTMTTDTSTSTAYMELRSLRSDDTAVYYCARDYYSDSSGYWDDAFDIWGQGTLVTVSS
VL: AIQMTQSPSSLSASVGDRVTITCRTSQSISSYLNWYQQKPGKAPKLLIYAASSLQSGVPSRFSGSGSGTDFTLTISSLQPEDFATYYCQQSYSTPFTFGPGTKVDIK
Regarding B1, the binding result with human ROR2-ECD is recorded as “no binding”. For the same molecule, the IC50 in assay [1] is 4.08 nM.

B2: Antibody 601-87 (antibody, V domains shown)
VH: QVQLQESGPGLVKSSETLSLTCTVSGGSMNNYYWSWIRQPAGKGLEWMGRIYSSGSTNYNPALKSRVTMSVDTSKNQFSLNLSSVTAADTAIYYCARASWSGTYWALFDYWGQGTLVTVSS
VL: ETTLTQSPAFMSATPGDKVNISCKASQDIDDDLNWYQQKPGEAPILIIQEATTLVPGIPPRFSGSGFGTDFTLTINSMQSEDVAYYFCLQHDNFPPTFGQGTKVEIK
Consider B2, for which, in assay [2], the koff was 0.00058 s⁻¹ and the kon amounted to 760000 M⁻¹ s⁻¹. The Kd in assay [3] amounted to 0.8 nM. In assay [4], this molecule displayed a Kd of 2.2 nM, a koff of 0.0013 s⁻¹ and a kon of 600000 M⁻¹ s⁻¹.

B3: Antibody 601-4 (antibody, V domains shown)
VH: EVQLVQSGPGLVKPSGTLSLTCAVSGGSISSSNWWSWVRQPPGKGLEWIGEIYHSGSTNYNPSLKSRVTISVDKSKNQFSLKLGSVTAADTATYYCARDLWLGEWDLWGQGTLVTVSS
VL: QSVLTQPPSASGAPGQRVTISCSGGISNVGTNGVNWYQHLPGTAPKLLVDAMNQRPSGVPDRFSGSRSGTSGSLAITGLRSEDEADYYCATWDDSLSGVLFGGGTKLTVLG
For B3, in assay [2], the koff was 0.00076 s⁻¹ and the kon came out at 3.6e+06 M⁻¹ s⁻¹. In addition, the Kd in assay [3] amounted to 0.2 nM. In assay [4], this molecule displayed a Kd of 0.3 nM, a koff of 0.0016 s⁻¹ and a kon of 4.6e+06 M⁻¹ s⁻¹.

B4: P601-14 (scFv, V domains shown)
VH: QVQLVQSGAEVKKPGESLKISCKDSGYSFTNYWLGWVRQMPGKGLEWMGIIYPGDSDTRYSPSFRGQVTISADKSISTAYLQWSSLKASDTAMYYCARLNLATHTAFDIWGQGTTVTVSS
VL: QSVLTQPASVSGSPGQSITISCTGTSSDVGGYNYVSWYQQHPGKAPKLMIYDVSNRPSGVSNRFSGSKSGNTASLTISGLQAEDEADYYCSSYTSSSTLWVFGGGTKLTVLG
On to B4, for which the binding result is “no binding” in the assay with human ROR2-ECD and “binds” with mouse ROR1-ECD. The concentration for half-maximal inhibition (IC50) in assay [1] was determined as 3.22 nM.

B5: Antibody 601-50 (antibody, V domains shown)
VH: QVQLQQSGAEVKKPGASVKVSCKASGYTFSRYYIHWVRRAPGQGLEWMGLINPGGGSTNYAQKFQGRVTMTRDTSTNTVYLELSSLRSDDTAVYYCARDYGTIDARRFDFWGQGTLVTVSS
VL: QSALTQPPSASGTPGQRVTISCPGSSSNIGSNYVYWYQQLPGTAPKLLIYRNNQRPSGVPDRFSGSKSGTSATLGITGLQTGDEADYYCGTWDSSLSAYVFGTGTKVTVL
With B5, in assay [2], the koff turned out to be 0.0011 s⁻¹ and the kon stood at 940000 M⁻¹ s⁻¹. For the same molecule, the Kd in assay [3] was found to be 1.1 nM. Further, in assay [4], the Kd is 1.5 nM, the koff is 0.0016 s⁻¹ and the kon amounted to 1.1e+06 M⁻¹ s⁻¹.

B6: Antibody 601-9 (antibody, V domains shown)
VH: QLQLQESGPGVVKPSGTLSLTCTVSGGSISRSDGYWGWVRQPPGKGLEWIGSIYDTGTTYYSPSLKSRLIISVDTSKNQFSLTLNSVTAADTAVYYCASMGGLRSSSSDAFHTWGPGTMVTVSS
VL: QSVLTQPPSVSVAPGETARITCGGTNIGSESVHWYQQRPGQAPVLVVYDDTDRPSGIPERFSGSNSGNTATLTISRVEAGDGADYYCQVWDSVSDRYVFGTGTKVTVL
As for B6, in assay [2], the koff was 0.021 s⁻¹ and the kon is 1.4e+06 M⁻¹ s⁻¹. Also, the Kd in assay [3] is 15.3 nM. Further, in assay [4], the Kd was determined as 27.6 nM, the koff was 0.017 s⁻¹ and the kon was 630000 M⁻¹ s⁻¹.

B7: Antibody 601-65 (antibody, V domains shown)
VH: QVQLQQSGPGLVKPSQTLSLTCAISGDSVSSNSATWNWIRQSPSRGLEWLGRTYYRSKWYNDYAVSVKSRIIINPDTSKNQFSLQLNSVTPEDTAVYYCARGVRAFDIWGQGTTVTVSS
VL: QSVLTQPPSVSGTPGQRVTIFCSGGSNNIGRSSVYWYRQAAGTAPKLLIYKTDQRPSGVPDRFAASKSGASASLAISGLRSEDEADYHCATWDDSLSAVVFGGGTKLTVL
In assay [2], B7 displayed a koff of 0.0072 s⁻¹ and a kon of 1.1e+06 M⁻¹ s⁻¹. Also, the Kd in assay [3] was 6.4 nM. Besides, in assay [4], the Kd came to 6.6 nM, the koff amounted to 0.011 s⁻¹ and the association rate constant (kon) is 1.7e+06 M⁻¹ s⁻¹.

B8: P601-51 (scFv, V domains shown)
VH: not shown
VL: QSALTQPASVSGSPGQSITISCTGTSSDFGDYDYVSWYQQHPGKAPKLMIYDVSDRPSGVSNRFSGSKSGNTASLTISGLQAEDEADYFCSSFTTSSTLVFGGGTKLTVLG
With B8, the binding result in the assay with human ROR2-ECD and with mouse ROR1-ECD was “no binding” each time. In assay [1], this molecule registered an IC50 of 0.62 nM.

B9: Antibody 601-66 (antibody, V domains shown)
VH: QVQLVQSGAEVKEPGASVKVSCKASGYTFRNSGITWVRQAPGQGLEWMGWINPNSGGAMYVDNFQGRATMTRDTSINTAYMELRSLSSDDTAVYYCARGMADLIDVFDIWGQGTLVTVSS
VL: TQPALTQPASVSGSPGQSITISCTGTSSDFGDYDYVSWYQQHPGKAPKLMIYDVSDRPSGVSNRFSGSKSGNTASLTISGLQAEDEADYFCSSFTTSSTLVFGGGTKLTVL
In assay [2], B9 returned a koff of 0.0051 s⁻¹ and a kon of 3.1e+06 M⁻¹ s⁻¹. The Kd in assay [3] was 1.7 nM. In assay [4], the Kd worked out at 2.4 nM, the koff was determined as 0.0059 s⁻¹ and the on-rate constant (kon) worked out at 2.5e+06 M⁻¹ s⁻¹.

B10: Antibody 601-70 (antibody, V domains shown)
VH: EVQLVQSGAELKKPGSSVRVSCKTSGGSFKTHGISWVRQAPGQGLEWMGWINPNSGGALYVDNFQGRATMTRDTSINTAYMELRSLSSDDTAVYYCARGMADLIDVFDIWGQGTMVTVSS
VL: B9 VL
In assay [2], B10 returned a koff of 0.018 s⁻¹ and a kon of 5.1e+06 M⁻¹ s⁻¹. In addition, in assay [3], the Kd is 3.5 nM. Also, in assay [4], the Kd came to 5.4 nM, the koff was 0.019 s⁻¹ and the kon is 3.6e+06 M⁻¹ s⁻¹.

B11: P601-1 (scFv, V domains shown)
VH: EVQLVESGGGLVKPGGSLRLSCAASGFTFSDYYMSWIRQAPGKGLEWVSYISDSTNTIYYADSVKGRFTVSRDNPKNSLYLQMISLRAEDTAVYYCARAVGAGEGFDHWGQGTLVTVSS
VL: not shown
Take B11: the binding result with human ROR2-ECD was “no binding”; with mouse ROR1-ECD it was “binds”. The molecule also yielded an IC50 in assay [1] of 0.11 nM.

B12: P601-28 (scFv, V domains shown)
VH: EVQLVQSGGDLVQPGGSLRLSCAASGFTFSSYSMNWVRQAPGKGLEWVSSISSSSSYIYYADSVKGRFTISRDNAKNSLYLQMNSLRAEDTAVYYCARGLGGWTHDAFDIWGQGTTVTVSS
VL: QSALTQPASVSGSPGQSITISCTGTSSDVGGYNYVSWYQQHPGKAPKLMIFDVSNRPSGVSNRFSGSKSGNTASLTISGLQAEDEADYYCSSYTSSSTLFGGGTKLTVL
With B12, the binding result is given as “no binding” with human ROR2-ECD and “binds” with mouse ROR1-ECD. Further, the IC50 in assay [1] worked out at 8.05 nM.

B13: P601-37 (scFv, V domains shown)
VH: EVQLVQSGAEVKKPGASVKVSCKASGYTFNNYGFSWVRQAPGQGLEWMGWISVYNGNTNYAQKLQGRVTMTTDTSTSTAYMELRSLRSDDTAVYYCARDYYSDSSGYWDDAFDIWGQGTMVTVSS
VL: AIRMTQSPSSLSASVGDRVTITCQASQDISNYLNWYQQKPGKAPKLLIYAASSLQSGVPSRFSGSGSGTDFTLTISSLQPEDFATYYCQQSYSTPFTFGPGTKVDIK
For B13, the binding result with human ROR2-ECD was “no binding”; in the assay with mouse ROR1-ECD it was “binds”. Besides, the IC50 in assay [1] is 27.9 nM.

B14: P601-43 (scFv, V domains shown)
VH: B13 VH with E1Q, V5Q, K19R, T28S, N30G, Y32N, F34I, S35T, V53T, M120T
VL: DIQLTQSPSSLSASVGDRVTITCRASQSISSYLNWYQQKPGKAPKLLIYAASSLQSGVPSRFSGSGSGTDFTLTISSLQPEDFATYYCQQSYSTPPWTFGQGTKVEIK
Regarding B14, in the assay with human ROR2-ECD, the binding result is “no binding”. For the same molecule, in assay [1], the IC50 turned out to be 0.23 nM.

B15: Antibody 601-149 (antibody, V domains shown)
VH: EAQLVESGGGLVKPGGSLRLSCAASGFTFSDYYMGWVRQAPGKGLKWLSYISDRAHTIYDTDSVKGRFTISRDDAKSSLYLRMNNLRVEDTAVYYCARAVGAGEGFDYWGQGTLVTVSS
VL: DIQLTQSPSSLSASVGDRVTITCQASQDVRNYLNWYQQKPGKAPNLLIYDATNLESGVPSRFSGSGSGTDFTFTISSLQPEDFATYYCQQYDNLPLSFGGGTKVEIK
As for B15, in assay [2], the off-rate (koff) turned out to be 0.00023 s⁻¹ and the kon was found to be 1.9e+06 M⁻¹ s⁻¹. Besides, in assay [3], the Kd came to 0.1 nM. Also, in assay [4], the Kd was found to be 0.4 nM, the koff was 0.00069 s⁻¹ and the kon was 1.6e+06 M⁻¹ s⁻¹.
